Results: PMC8300647, “Effects of Serine or Threonine in the Active Site of Typical 2-Cys Prx on Hyperoxidation Susceptibility and on Chaperone Activity” (Antioxidants, 2021)
Residue numbers refer to the chain shown, from its start. Numbers in names are those of the source.

Assays:
[1] = target: the molecule itself; test: SEC; oxidized samples (disulfide): reduced 30 uM protein treated with 36 uM H2O2 for 30 min at room temperature; Phenomenex BioSep-SEC-S2000, 100 mM Tris-HCl pH 7.4, 1 mL/min, absorbance at 280 nm; self-association (decamer, dimer)
[2] = target: the molecule itself; test: SEC; reduced samples: 30 uM protein treated with 5 mM TCEP, excess removed by PD10; Phenomenex BioSep-SEC-S2000, 100 mM Tris-HCl pH 7.4, 1 mL/min, absorbance at 280 nm; self-association (decamer, dimer)

B1: AhpC from Pseudomonas aeruginosa (enzyme, UniProt Q9I6Z3 1-187, looked up)
chain: MSLINTQVQPFKVNAFHNGKFIEVTEESLKGKWSVLIFMPAAFTFNCPTEIEDAANNYGEFQKAGAEVYIVTTDTHFSHKVWHETSPAVGKAQFPLIGDPTHQLTNAFGVHIPEEGLALRGTFVINPEGVIKTVEIHSNEIARDVGETVRKLKAAQYTAAHPGEVCPAKWKEGEKTLAPSLDLVGKI
notes: The forward primer carries the ATG of the Nde I site followed by the gene's own ATG, so one more Met may precede the natural start; The strain that was amplified (ATCC29853) is not the strain of the genome used for the primers; also called PaAhpC; ahpc (Pa); source: E. coli BL21 (DE3), pET15b, purified (IMAC HisTrap, PD10 desalting)
With B1 the “stoichiometry N” value [1] was 2 and the “stoichiometry N” value [2] was 10.

B2: PaAhpC^T44S (enzyme)
chain: B1 chain with T44S
notes: AhpC of Pseudomonas aeruginosa with the catalytic triad Thr changed to Ser; printed as T44S in the SEC text and legend and as T43S in the primers' names and other legends (one mutant; mutagenic primer encodes AAFSFNC); Made by site directed mutagenesis (Quick Change II) of the pET15b-ahpc (Pa) plasmid; also called PaAhpC^T43S; source: E. coli BL21 (DE3), pET15b, purified (IMAC HisTrap, …)
B2 was tested, and the “stoichiometry N” value [2] was 10.
